In patent US20250215491, “SEQUENCING WITH SINGLE-STRANDED BINDING PROTEINS” (ILLUMINA, INC., published 2025):

How the values were obtained:
[1] = biological target: T1, Tth SSB F255P (Rev 101 F225P) (Thermus thermophilus HB8, UniProt Q5SLP9 SEQ:21-283); assay: EMSA; Kd value only in FIG. 12; 50 mM Tris pH 7.5, 50 mM NaCl, 0.1 mM DTT, 60 C 10 min; 0.25 nM oligo; protein 0.1-4 uM; conditions: chain copies: 2 (inferred); label: 5'-FAM
T1 chain: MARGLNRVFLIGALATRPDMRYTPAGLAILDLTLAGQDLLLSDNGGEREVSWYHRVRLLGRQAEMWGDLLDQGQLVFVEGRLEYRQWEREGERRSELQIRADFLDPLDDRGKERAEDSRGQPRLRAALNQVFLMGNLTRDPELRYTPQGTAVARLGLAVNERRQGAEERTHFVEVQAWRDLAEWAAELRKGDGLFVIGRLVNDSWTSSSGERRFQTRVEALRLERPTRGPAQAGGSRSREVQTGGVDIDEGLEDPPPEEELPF
Protocol: (§1) An electrophoretic mobility shift assay was used to determine the binding affinity (Kd) for the Tth F255P SSB and Tth SSB. An oligonucleotide of 35 bases labelled at the 5′ end with fluorescein (FAM) dye was used as the substrate. The sequence of the oligonucleotide is 5′ FAM GTGTAGATCTCGGTGGTCGCCGTATCATTAAAAAA (SEQ ID NO: 14). A titration of Tth F255P SSB or Tth SSB was used ranging from 0.1 to 4 μM. The reaction buffer was 50 mM Tris pH 7.5, 50 mM NaCl, and 0.1 mM DTT with each reaction utilizing […] of labelled oligonucleotide. The reactions were incubated at 60° C. for 10 minutes. The reactions were resolved on 10% acrylamide native TBE gel and imaged with Typhoon Scanner. The fraction of bound versus unbound for each concentration tested was determined and fitted for Kd analysis.

Tth SSB (Rev 101) = biological target: T2, Tth SSB (Rev 101) (Thermus thermophilus HB8, UniProt Q5SLP9 SEQ:21-283); assay: as above; conditions: chain copies: 2 (inferred); label: 5'-FAM
T2 sequence: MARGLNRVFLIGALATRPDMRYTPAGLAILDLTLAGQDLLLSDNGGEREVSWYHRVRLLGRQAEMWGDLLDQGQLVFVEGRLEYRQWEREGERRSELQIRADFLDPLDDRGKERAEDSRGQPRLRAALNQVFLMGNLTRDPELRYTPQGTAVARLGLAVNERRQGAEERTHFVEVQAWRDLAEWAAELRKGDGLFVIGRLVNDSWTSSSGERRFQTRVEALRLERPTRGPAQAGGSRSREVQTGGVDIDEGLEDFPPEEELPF
Protocol: as §1

B1: 5'-FAM 35-mer oligonucleotide (ssDNA)
DNA: GTGTAGATCTCGGTGGTCGCCGTATCATTAAAAAA
- binding result [1]: binds
- binding result (Tth SSB (Rev 101)): binds
